Numbering of substitutions follows the chain as printed. Names and notes keep the numbering of the source.

This assay deals with T1, His-SUMO-Met4-Strep-tagII-HA (S. cerevisiae, UniProt P32389 1-672).
T1 construct: Met4, transcription factor of the MET regulon, Saccharomyces cerevisiae; MET4 ORF cloned into the pET His6 Sumo vector; fractions with pure, full-length Met4 were pooled; No cleavage of His-SUMO is described; also called recombinant Met4; bacterially purified Met4; source: E. coli BL21, purified (Ni-NTA, Strep-Tactin Sepharose); not shown: HA, C-terminal, kept
T1 sequence (looked up): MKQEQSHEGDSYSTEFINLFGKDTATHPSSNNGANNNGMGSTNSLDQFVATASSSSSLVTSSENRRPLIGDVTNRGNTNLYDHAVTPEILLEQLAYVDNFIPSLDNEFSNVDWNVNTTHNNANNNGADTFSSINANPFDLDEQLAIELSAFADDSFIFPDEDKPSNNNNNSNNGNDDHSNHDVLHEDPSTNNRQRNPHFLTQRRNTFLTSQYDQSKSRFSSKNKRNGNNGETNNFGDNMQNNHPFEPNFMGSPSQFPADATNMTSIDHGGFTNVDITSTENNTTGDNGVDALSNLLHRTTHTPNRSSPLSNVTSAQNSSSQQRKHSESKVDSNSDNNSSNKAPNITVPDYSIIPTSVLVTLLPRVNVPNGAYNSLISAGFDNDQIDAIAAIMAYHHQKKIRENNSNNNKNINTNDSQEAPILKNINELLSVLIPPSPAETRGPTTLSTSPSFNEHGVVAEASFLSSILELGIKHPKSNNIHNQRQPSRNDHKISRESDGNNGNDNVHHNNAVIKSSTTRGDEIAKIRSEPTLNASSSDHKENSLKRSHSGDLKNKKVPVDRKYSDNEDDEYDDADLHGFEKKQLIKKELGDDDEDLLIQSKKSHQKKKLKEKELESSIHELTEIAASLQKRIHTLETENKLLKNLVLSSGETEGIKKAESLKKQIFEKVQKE
Briefly: pull-down; Met30-Flag complex isolated on anti-FLAG M2 protein G dynabeads from lysate of rich or -sulfur cells with 1 mM DTT, 1 mM diamide or nothing added; beads washed, then incubated with 1 ug purified recombinant Met4 in 1 mL IP buffer (50 mM Tris pH 7.5, 150 mM NaCl, 1% NP-40) with or without 1 mM DTT, 2 h, 4°C; Western blots for Met4 and Met30; mutants from cells grown in rich media. The following applies: both partners purified.

B1: Met30-Flag (natural protein, S. cerevisiae, UniProt P39014 1-640, looked up)
chain: MRRERQRMMSFEDKDKDDLDNSNSNNSSEMTDTAMMPPLKRLLITGSSDDLAQGSSGKKKMTMATRSPSSSPDLATNDSGTRVQPLPEYNFTKFCYRHNPDIQFSPTHTACYKQDLKRTQEINANIAKLPLQEQSDIHHIISKYSNSNDKIRKLILDGILSTSCFPQLSYISSLVTHMIKIDFISILPQELSLKILSYLDCQSLCNATRVCRKWQKLADDDRVWYHMCEQHIDRKCPNCGWGLPLLHMKRARIQQNSTGSSSNADIQTQTTRPWKVIYRERFKVESNWRKGHCRIQEFKGHMDGVLTLQFNYRLLFTGSYDSTIGIWDLFTGKLIRRLSGHSDGVKTLYFDDRKLITGSLDKTIRVWNYITGECISTYRGHSDSVLSVDSYQKVIVSGSADKTVKVWHVESRTCYTLRGHTEWVNCVKLHPKSFSCFSCSDDTTIRMWDIRTNSCLKVFRGHVGQVQKIIPLTIKDVENLATDNTSDGSSPQDDPTMTDGADESDTPSNEQETVLDENIPYPTHLLSCGLDNTIKLWDVKTGKCIRTQFGHVEGVWDIAADNFRIISGSHDGSIKVWDLQSGKCMHTFNGRRLQRETQHTQTQSLGDKVAPIACVCIGDSECFSGDEFGCVKMYKFDLND
notes: Met30, F-box protein of the SCF^Met30 E3 ubiquitin ligase, Saccharomyces cerevisiae (CEN.PK background); endogenous locus tagged at the C-terminus; 23 cysteines; Isolated from yeast as a Met30-Flag complex, so other SCF components may be on the beads; Cysteines are reduced or oxidised depending on the IP condition (+DTT, -DTT, +diamide); also called SCF^Met30-Flag; Flag-tagged Met30; source: S. …
As for B1, the binding result is listed as “binds”.

B2: Met30 C414S (Flag-tagged) (natural protein, S. cerevisiae, UniProt P39014 1-640, looked up)
chain: B1 chain with C414S
notes: Met30, F-box protein, Saccharomyces cerevisiae (CEN.PK background), with the point mutation C414S; whole gene locus with tag transformed into yeast; source: S. cerevisiae CEN.PK mutant strain grown in rich media, immunopurified on anti-FLAG M2 magnetic beads; not shown: Flag, C-terminal, kept
For the molecule B2, the binding result is “binds”.

B3: Met30 C614/616/622/630S (Flag-tagged) (natural protein, S. cerevisiae, UniProt P39014 1-640, looked up)
chain: B1 chain with C614S, C616S, C622S, C630S
notes: Met30, F-box protein, Saccharomyces cerevisiae (CEN.PK background), with four cysteine to serine mutations in the WD-40 repeat region; whole gene locus with tag transformed into yeast; source: S. cerevisiae CEN.PK mutant strain grown in rich media, immunopurified on anti-FLAG M2 magnetic beads; not shown: Flag, C-terminal, kept
For B3, the binding result is recorded as “binds”.
